The experiment deals with no. 14 short peptide of the CD2V extracellular region (147-161) (African swine fever virus (China/2018/AnhuiXCGQ)). Nature of the experiment: ELISA. As to conditions: remark: other sources report otherwise. On the technique in general: ELISA stands for enzyme-linked immunosorbent assay.

B1: monoclonal antibody 13G11 against CD2V (antibody, V domains shown)
VH: MIMVQSQESGPDLVKPSQSLSLTCTVTGYSITSGYSWHWIRQFPGNKLEWMGYIHYSGVTNYNPSLKSRISITRDTSKNQFFLQLNSVTTEDTATYYCARAPLYYGNYVWFSYWGQGTTVTVSSK
VL: MTCDIELTQSPASLSASVGETVTITCRASGNIHNYLAWYQQKQGKSPQLLVYNAKTLADGVPSRFSGSGSGSQYSLKINSLQPEDFGSYYCQHFWSTPWTFGGGTKLENQTDK
For the molecule B1, the OD450 was more than 1 OD450.

B2: monoclonal antibody 18A3 against CD2V (antibody, V domains shown)
VH: MVKPGASVKISCKASGYSFTSYYIHWVKQRPGQGLEWIGWIFPGSGNTKYNEKFKGKATLTADTSSSTAYMQLSSLTSEDSAVYFCAQTGRVFAYWGQGTTVTVSSK
VL: MTQSPSSLSASLGERVSLTCRASQEISGYLSWLQQKPDGTIKRLIYAASTLDSGVPKRFSGSRSGSDYSLTISSLESEDFADYYCLQYASYPWTFGGGTKLESNGE
For the molecule B2, the OD450 is more than 1 OD450.

The values above are taken from article PMC9045250.
